Reference: patent publication US20180155451A1 (published 2018)

T1: FcγRIIa R (human, UniProt P12318 34-217)
T1 construct: extracellular domain; also called FcgRIIa R; FcγRIIa type R
T1 sequence (looked up): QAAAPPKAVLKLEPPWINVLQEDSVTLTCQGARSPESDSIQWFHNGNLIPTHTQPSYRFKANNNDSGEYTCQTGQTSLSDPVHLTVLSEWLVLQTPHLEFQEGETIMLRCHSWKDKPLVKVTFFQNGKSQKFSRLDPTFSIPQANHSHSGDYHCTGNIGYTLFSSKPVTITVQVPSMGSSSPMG

T2: FcγRIIb (human, UniProt P31994 43-217)
T2 construct: extracellular domain; also called FcgRIIb
T2 sequence (looked up): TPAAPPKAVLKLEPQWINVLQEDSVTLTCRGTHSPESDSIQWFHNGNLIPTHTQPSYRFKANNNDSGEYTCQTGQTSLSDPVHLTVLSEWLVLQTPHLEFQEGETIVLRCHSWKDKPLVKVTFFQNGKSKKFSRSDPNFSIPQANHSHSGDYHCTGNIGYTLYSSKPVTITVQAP

B1: GpH7-A5/GpH7-B3 variant A330_14T/GpL16-k0 (antibody, human IgG1, kappa)
heavy 1: not shown
heavy 2: not shown
light: DIVMTQSPLSLPVTPGEPASISCQASESLVHSNRNTYLHWYLQKPGQSPQLLIYKVSNRFSGVPDRFSGSGSGTDFTLKISRVEAEDVGVYYCSQNTHVPPTFGQGTKVEIERTVAAPSVFIFPPSDEQLKSGTASVVCLLNNFYPREAKVQWKVDNALQSGNSQESVTEQDSKDSTYSLSSTLTLSKADYEKHKVYACEVTHQGLSSPVTKSFNRGEC
notes: He Ab; IgG1; mutation in one H chain only
B2: GpH7-A5/GpH7-B3 variant P329_09D/GpL16-k0 (antibody, human IgG1, kappa)
heavy 1: not shown
heavy 2: not shown
light: B1 light
notes: He Ab; IgG1; mutation in one H chain only; also called GpH7-A5/GpH7-B14/GpL16-k0
B3: GpH7-A5/GpH7-B3 variant N325_11K/GpL16-k0 (antibody, human IgG1, kappa)
heavy 1: not shown
heavy 2: not shown
light: B1 light
notes: as for B1
B4: GpH7-A5/GpH7-B3 variant A330_18N/GpL16-k0 (antibody, human IgG1, kappa)
heavy 1: not shown
heavy 2: not shown
light: B1 light
notes: as for B1
B5: GpH7-A5/GpH7-B3 variant P329_07I/GpL16-k0 (antibody, human IgG1, kappa)
heavy 1: not shown
heavy 2: not shown
light: B1 light
notes: as for B1
B6: GpH7-A5/GpH7-B3 variant N325_02A/GpL16-k0 (antibody, human IgG1, kappa)
heavy 1: not shown
heavy 2: not shown
light: B1 light
notes: as for B1
B7: GpH7-A5/GpH7-B3 variant N325_12R/GpL16-k0 (antibody, human IgG1, kappa)
heavy 1: not shown
heavy 2: not shown
light: B1 light
notes: as for B1
B8: GpH7-A5/GpH7-B3 variant N325_05P/GpL16-k0 (antibody, human IgG1, kappa)
heavy 1: not shown
heavy 2: not shown
light: B1 light
notes: as for B1
B9: GpH7-A5/GpH7-B3 variant P329_08L/GpL16-k0 (antibody, human IgG1, kappa)
heavy 1: not shown
heavy 2: not shown
light: B1 light
notes: as for B1
B10: GpH7-A5/GpH7-B3 variant P329_04F/GpL16-k0 (antibody, human IgG1, kappa)
heavy 1: not shown
heavy 2: not shown
light: B1 light
notes: as for B1
B11: GpH7-A5/GpH7-B3 variant P329_02A/GpL16-k0 (antibody, human IgG1, kappa)
heavy 1: not shown
heavy 2: not shown
light: B1 light
notes: as for B1
B12: GpH7-A5/GpH7-B3 variant P329_06M/GpL16-k0 (antibody, human IgG1, kappa)
heavy 1: not shown
heavy 2: not shown
light: B1 light
notes: as for B1
B13: GpH7-A5/GpH7-B3 variant P329_03V/GpL16-k0 (antibody, human IgG1, kappa)
heavy 1: not shown
heavy 2: not shown
light: B1 light
notes: as for B1
B14: GpH7-A5/GpH7-B3 variant N325_19Q/GpL16-k0 (antibody, human IgG1, kappa)
heavy 1: not shown
heavy 2: not shown
light: B1 light
notes: as for B1
B15: GpH7-A5/GpH7-B3 variant I336_20W/GpL16-k0 (antibody, human IgG1, kappa)
heavy 1: not shown
heavy 2: not shown
light: B1 light
notes: as for B1
B16: GpH7-A5/GpH7-B3 variant N325_16H/GpL16-k0 (antibody, human IgG1, kappa)
heavy 1: not shown
heavy 2: not shown
light: B1 light
notes: as for B1

target: T1, FcγRIIa R; experiment: SPR (Biacore), captured antibody, FcγR analyte; binding relative to GpH7-A5/GpH7-B3/GpL16-k0 = 100

Row | He/Con_2aR (IIaR binding) | Binder
1 | 95.5 control=100 | B1
2 | 67.8 control=100 | B2
3 | 16.2 control=100 | B3
4 | 81.1 control=100 | B4
5 | 49.6 control=100 | B5
6 | 84.1 control=100 | B6
7 | 26.1 control=100 | B7
8 | 42.2 control=100 | B8
9 | 42.8 control=100 | B9
10 | 44.7 control=100 | B10
11 | 58.9 control=100 | B11
12 | 42.7 control=100 | B12
13 | 53.8 control=100 | B13
14 | 92.1 control=100 | B14
15 | 30.3 control=100 | B15
16 | 89 control=100 | B16

target: T2, FcγRIIb; experiment: as above

Row | He/Con_2b (IIb binding) | Binder
17 | 77.9 control=100 | B1
18 | 53.5 control=100 | B2
19 | 10.4 control=100 | B3
20 | 63.7 control=100 | B4
21 | 34.6 control=100 | B5
22 | 64.4 control=100 | B6
23 | 19.1 control=100 | B7
24 | 26 control=100 | B8
25 | 29.1 control=100 | B9
26 | 32.2 control=100 | B10
27 | 40.5 control=100 | B11
28 | 29.1 control=100 | B12
29 | 38.5 control=100 | B13
30 | 69.1 control=100 | B14
31 | 20.3 control=100 | B15
32 | 70.1 control=100 | B16

target: T1, FcγRIIa R; experiment: He/Con_2aR divided by He/Con_2b (FcγRIIa R over FcγRIIb); SPR (Biacore)

Row | IIaR/IIb (He_2aR/2b) | Binder
33 | 1.23 ratio | B1
34 | 1.27 ratio | B2
35 | 1.57 ratio | B3
36 | 1.27 ratio | B4
37 | 1.44 ratio | B5
38 | 1.31 ratio | B6
39 | 1.37 ratio | B7
40 | 1.63 ratio | B8
41 | 1.47 ratio | B9
42 | 1.39 ratio | B10
43 | 1.45 ratio | B11
44 | 1.47 ratio | B12
45 | 1.4 ratio | B13
46 | 1.33 ratio | B14
47 | 1.5 ratio | B15
48 | 1.27 ratio | B16
